This assay concerns the target 14-3-3β (UniProt P31946). Briefly: anti-FLAG co-IP, anti-HA blot. As to conditions: reference: FLAG-DYRK1A wild type; sites S529.

Experimental findings from paper PMC7948726 are described below.

Take “DYRK1A (from UniProt Q63470) FLAG-DYRK1A-S529A”: the “binding against the reference” value is given as “weaker”.
